Data: PMC8551123, “Pentose degradation in archaea: Halorhabdus species degrade D-xylose, L-arabinose and D-ribose via bacterial-type pathways” (Extremophiles, 2020)

Assays:
[1] = target: Ribose-5-phosphate isomerase of Halorhabdus utahensis (Huta_0832) (Halorhabdus utahensis); experiment: SEC; Superdex 200 HiLoad column (1.6 by 60 cm), flow rate 1 ml/min, calibrated with the HMW and LMW kits; oligomeric state from the native mass and the calculated subunit mass
[2] = target: Ribokinase of Halorhabdus tiamatea (HTIA_0439) (Halorhabdus tiamatea); experiment: as above
[3] = substrate: Nc1ncnc2c1ncn2[C@@H]1O[C@H](COP(=O)(O)OP(=O)(O)OP(=O)(O)O)[C@@H](O)[C@H]1O; experiment: coupled pyruvate kinase/lactate dehydrogenase assay (NADH); type: biochemical, Halorhabdus utahensis; details: 37 °C
[4] = substrate: O=C(CO)[C@@H](O)[C@H](O)CO; experiment: as above; type: biochemical, Halorhabdus utahensis; details: ATP co-substrate (12.5 mM standard), 37 °C, pH 8.0, 2 M KCl, 10 mM MgCl2
[5] = target: the molecule itself; experiment: SEC; Superdex 200 HiLoad column (1.6 by 60 cm), flow rate 1 ml/min, calibrated with the HMW and LMW kits; oligomeric state from the native mass and the calculated subunit mass
[6] = substrate: O=C(CO)[C@@H](O)[C@@H](O)CO; experiment: coupled pyruvate kinase/lactate dehydrogenase assay (NADH); type: biochemical, Halorhabdus utahensis; details: ATP co-substrate (10 mM standard), 37 °C, pH 8.0, 1.5 M KCl, 50 mM MgCl2
[7] = substrate: Nc1ncnc2c1ncn2[C@@H]1O[C@H](COP(=O)(O)OP(=O)(O)OP(=O)(O)O)[C@@H](O)[C@H]1O; experiment: as above; type: biochemical, Halorhabdus tiamatea; details: D-ribose co-substrate (5 mM standard), 42 °C, pH 7.5 bis-tris, 1.5 M KCl, 10 mM MgCl2

Molecule: Ribose-5-phosphate isomerase of Halorhabdus utahensis (Huta_0832) (enzyme)
- stoichiometry N [1]: 4

Molecule: Ribokinase of Halorhabdus tiamatea (HTIA_0439) (enzyme)
- stoichiometry N [2]: 2

B1: Xylulokinase of Halorhabdus utahensis (Huta_2446) (enzyme, UniProt C7NMH3 1-515, looked up)
chain: MGLDLGTSGVKTLVADADGEVLATNTEEYPLYQPEVGWSEQDPADWWAATLDGIEAVLEDPAVDPEDVEALGLTGQMHGSVFLDGEGEVLRPAILWNDTRTSAQCDEIEERVGEDRIIELASNPPFEGFTAPKILWVQEHEPEVYDQTESILLPKDFIRYKLTEAFATDVSDASGTLLLDVGERDWSPEILDELDISRDLLPEVYESPEVTGAVTDAVAERTGLPAGTPVVAGAGDNAAGAVGSGVVGDGDVWGSIGTSGVIFVATDDERTDPEGRVHTFCHAVPDTWHVMGVMLSAGGAFSWFSETLGGPEEVVADQLGKDAFEVLTDEAATVDPGSEGLIFLPYLNGERTPHRDADARGAFFGLSTRHDKSHVVRSVLEGVTYGLRDSFRIVRDDLGVDTGQLKAAGGGAKSPLWKQIQADIFDAEILTPNVDEGPAYGSALLAGVGADVYDNVADATEQAVDIVDSVEPIDQHTRVYDEYYEIYESLYPALEDSFAANSAAIESAQDILDEA
notes: xylulokinase, Halorhabdus utahensis, gene Huta_2446 (1548 nucleotides); calculated subunit mass 55.1 kDa; Gene amplified from genomic DNA and cloned into pTA963; source: Haloferax volcanii H1209, purified (Ni-NTA, size-exclusion chromatography, Phenyl-Sepharose)
- Km ([3]; D-xylulose co-substrate (10 mM standard), pH 8.0, 2 M KCl, 10 mM MgCl2): 5.68 mM
- Km [4]: 0.31 mM
- stoichiometry N [5]: 2

B2: Ribulokinase of Halorhabdus utahensis (Huta_1150) (enzyme, UniProt C7NMB8 1-512, looked up)
chain: MDGQYLVGTDIGTNSTKTILVSPEGEVLGTGNAGYEVEQPEPSWAQQWPDVWVEATYDSIQQAIDEAEVDPSEIRGISISSLYGGAGVPLDSEGEPVYPCLIWMDRRATDQVEWVKENVDLDRLFEITGNYVDSYYGYTKIRWIKEHEPEVWDDIENFVPPNNYVEYVMTDELAVDYSSAGNVGGVFDIHDLAWSEEACEMLEIPIEKFPERLVPTEEIVGEVTADAAEASGLPEGTPVLAGGVDAPMATLAAGAFEEGDNVSMMGTSTCWGTIHEGAGLDQQLVSMPHVAEGEEKIYTWGGSATTGGLIEWFKDEFGGPEEQAGELVDVDPFELLNMKAEEIPAGSEGLVALPYFKGERSPIWDPDARGMFTGLSLYHGKSHMYRALMEAGGYSLRHNVEVAEEIGIPLNDETSVVGGVSNSELWMQILADVTGRRMEVPAGGVGAPLGDALVVGVGTGLFEDYDVATEWTETGEVYTPEPENVDTYDEYYDIYKRLYQNTKDEMHDLAQL
notes: ribulokinase, Halorhabdus utahensis, gene Huta_1150 (1539 nucleotides); calculated subunit mass 56.1 kDa; Gene amplified from genomic DNA and cloned into pTA963; also called L-ribulokinase; source: Haloferax volcanii H1209, purified (Ni-NTA, size-exclusion chromatography)
- Km ([3]; L-ribulose co-substrate (1 mM standard), pH 8.0, 1.5 M KCl, 50 mM MgCl2): 4.2 mM
- Km [6]: 0.55 mM
- stoichiometry N [5]: 6

B3: ribokinase (HTIA_0439) (Halorhabdus tiamatea SARL4B) (protein)
chain: MGNVYVAGSINQDIAVRLERRPQPGETVPGESASFGLGGKGANQAIAAARSGAAVELIGAVGDDRFGEELLADLDTEDGLSTAGVHRASNTSTGVALITVDADSENAIVAVPGANAALAPADVGDVGMEDDAVVLSQFEIPQPTIRTFFEQAHAQGARTVLNPAPAETVREDLLERVDFLVVNETEALFYADGDSKGQLSQDELVETAAALRTHDEQVVVVTLGEAGVFASTPSETIELDAYAVDPVDTTGAGDAFVGAFATALGDGLRLRDALDVGAAAGALATTQTGAAPSLPTRAAIEDLRADE
notes: full length, overexpressed, recombinant (Haloferax volcanii H1209, pTA963, His tag by general methods)
- Km [7]: 0.1 mM

B4: Xylose isomerase of Halorhabdus utahensis (Huta_2443) (enzyme, UniProt C7NMH0 1-438, looked up)
chain: MSEYFPEIDEITYEGPDSQDPLSFSYYDPEKQVGEKTMAEHLRFSVAYWHTLREDGSDPFGAGTMQRPWDDIDDPMEKAHARVDAAFEFFEKLGVPYFCFHDRDIAPKGEDLAESNENLDEIVDHVEEKIDETGVELLWGTAQLFMEPKFAHGAATSPNPDVFAHAAGQVKKAMEVTERLGGENFVFWGGREGYKTLLNSDMGRELDNMGRFFRMAADYADDIGFDGQLLIEPKPKEPTKHQYDFDAANVMAFLREYGLEDRFNLNLEANHATLAGHTFRHELQYARVNDALGSVDANQGDKLIGWDTDEFPTDVYMTTLAMYEVLENDGIAPGGLNFDAKVRRESFEPVDLFYGHVVGMDTFARGLEVAHELREDGVFADVIDDRYGYDAGIGAEIAAESTDFEALAEYALENDGIELESGRQEKLKAVLNSYILES
notes: xylose isomerase, Halorhabdus utahensis, gene Huta_2443 (1317 nucleotides); calculated subunit mass 49.3 kDa; Gene amplified from genomic DNA and cloned into pTA963; Elution from Ni-NTA implies a His tag; also called class II xylose isomerase; source: Haloferax volcanii H1209, purified (Ni-NTA, size-exclusion chromatography)
- stoichiometry N [5]: 4

B5: Arabinose isomerase of Halorhabdus utahensis (Huta_1154) (enzyme, UniProt C7NML7 1-495, looked up)
chain: MSPIPHGTDFDDLEVWFLTGSQHLYGEETLDLVAEDAREVAAGLDDDDRIPVSVEFKSVLTTADAIESVVREANASEDCIGLITWMHTFSPAKMWIRGLQALDVPFVHLHTQFNRELPYDEIDMDFMNANQSAHGGREFGHIVSRLDIDRKVVVGHWEDDDVREQLDTWARAAAARHELRGAKIARFGDNMRDVAVTEGDKVSAQMAFGASVDGYGLGDLVEFVEDVTESEIDDLLEEYDQQYELAAELQADGDRRDSLREAARIELGIRAFLEDGEFVGFTTTFENLTGLSQLPGLAVQRLMADGYGFGPEGDWKSALLTRAMKVMGQGLNGGTSLMEHYTYDLTEGDEKVLGAHMLEICESIAGEQPRLEIHPLDIGGKADPVRAVFDADTGPAINASLVDMGDRFRLITNDVESVGPDEPLPELPVARAVWKPEPDFETAIEAWIKAGGAHHTGYSQAVTNEHLEDFASMTGIEHLHVGADTDIADVERKLS
notes: arabinose isomerase, Halorhabdus utahensis, gene Huta_1154 (1488 nucleotides); calculated subunit mass 55.4 kDa; Gene amplified from genomic DNA and cloned into pTA963; source: Haloferax volcanii H1209, purified (Ni-NTA, size-exclusion chromatography)
- stoichiometry N [5]: 6
